Data reported in US20210246223A1 (CRD PHARMACEUTICALS, published 2021).

Assays:
[1] = biological target: T1, EGFR (UniProt P00533 25-645, limits assumed); test: ELISA, plate coated with 1 µg/ml EGFR, increasing concentration of 29Z6
T1 construct: Coated on the ELISA plate at 1 µg/ml and also used in the western blot; also called HER1; ErbB1
Method: (§1) ELISA plate was coated with 1 μg/ml of EGFR, HER2, or extracellular domain of HER3. The ELISA was incubated with increasing concentration of 29Z6 followed by incubation with HRP-goat-anti mouse IgG to detect 29Z6 antibody binding. […] Confirmation of the binding specificity was undertaken using western blotting. Only HER3 was bound to 29Z6 while EGFR or HER2 didn't (FIG. 10).

[2] = biological target: T2, extracellular domain of HER3 (human, UniProt P21860 20-643); test: SPR (Biacore 3000), HER3 extracellular domain amine-coupled on CM5, 29Z6 mAb as analyte, 1:1 model, 25° C.
T2 construct: extracellular domain; also called purified extracellular domain of HER3; HER3 receptor ectodomain
T2 sequence (P21860 20-643): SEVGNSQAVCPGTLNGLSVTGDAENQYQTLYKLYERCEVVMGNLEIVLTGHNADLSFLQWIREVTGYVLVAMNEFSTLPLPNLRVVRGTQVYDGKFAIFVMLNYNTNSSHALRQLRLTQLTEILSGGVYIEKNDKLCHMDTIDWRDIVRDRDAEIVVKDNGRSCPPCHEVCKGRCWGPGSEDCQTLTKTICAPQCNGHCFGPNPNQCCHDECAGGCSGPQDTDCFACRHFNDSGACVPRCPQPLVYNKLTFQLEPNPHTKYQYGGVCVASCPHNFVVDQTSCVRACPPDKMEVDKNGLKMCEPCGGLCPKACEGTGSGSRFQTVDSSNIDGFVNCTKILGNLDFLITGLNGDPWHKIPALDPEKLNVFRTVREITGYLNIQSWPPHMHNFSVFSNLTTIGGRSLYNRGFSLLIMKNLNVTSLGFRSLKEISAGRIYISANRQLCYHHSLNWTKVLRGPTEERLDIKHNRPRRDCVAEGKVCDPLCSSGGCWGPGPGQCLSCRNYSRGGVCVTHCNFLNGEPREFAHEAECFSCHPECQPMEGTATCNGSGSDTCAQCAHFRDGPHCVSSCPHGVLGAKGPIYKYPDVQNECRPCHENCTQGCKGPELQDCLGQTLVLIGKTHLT
Method: (§2) The binding kinetics of the 29Z6 mAb was analysed by surface plasmon resonance (SPR) using a Biacore3000 optical sensor platform equipped with research-grade CM5 sensor (GE Healthcare Bio-Sciences Corp., Piscataway, N.J.). Purified extracellular domain of HER3 was immobilized on the sensor chip surface of a carboxylated dextran-coated gold film using the standard amine coupling kit following the manufacturer's protocol. Briefly, 70 μL of a mixed solution of NHS/EDC (1:1, v/v) was injected to activate the carboxylated dextran, followed by manual injection of protein in 10 mM NaOAc (pH 4.5) until the desired surface density was reached. Ethanolamine 1 M in water (pH 8.5) was then injected to de-activate residual NHS-esters on the sensor chip. […] Kinetic data were evaluated by globally fitting the sensorgrams to a simple 1:1 interaction model using the Biacore software BiaEvaluation version 4.1 (GE Healthcare Bio-Sciences Corp.). The equilibrium KDs were determined from the resulting kinetic association and dissociation rates (kd/ka), and a minimum of nine independent runs were used to generate the reported standard deviations. A 1:1 binding model was used together with experimentally determined RMax as fixed parameter to determine association rate constant (ka), dissociation rate constant (kd), and equilibrium dissociation constant (KD). […]

[3] = biological target: T2, extracellular domain of HER3; test: SPR (Biacore 3000), HER3 extracellular domain amine-coupled on CM5, 29Z6 mAb 0.1-300 nM as analyte, 1:1 model, 25° C.
Method: as §2

[4] = biological target: T3, HER3-Fc fusion comprising the extracellular domain (aa 20-643) of human HER3 (human, UniProt P21860 20-643); test: ELISA, HER3-Fc coated at 1 µg/ml, serial dilution of IgG 29Z6, anti-mouse Fc-HRP detection
T3 construct: range 20-643; also called human HER3-Fc fusion protein
T3 sequence (P21860 20-643 limits assumed): as the sequence (P21860 20-643) above
Method: Antigen binding of IgG 29Z6 was analyzed in ELISA using immobilized HER3-Fc fusion comprising the extracellular domain (aa 20-643) of human HER3. The HER3-Fc fusion protein was coated onto polystyrene microtiter plates at 1 μg/ml in PBS. Remaining binding sites were blocked with PBS, 2% skimmed milk (MPBS). Plates were then incubated with a serial dilution of IgG 29Z6 in MPBS. After washing, bound antibody was detected with an HRP-conjugated anti-mouse Fc antibody and TMB, H₂O₂ as substrate.

[5] = biological target: T4, HER2 (UniProt P04626 23-652, limits assumed); test: ELISA, plate coated with 1 µg/ml HER2, increasing concentration of 29Z6
T4 construct: Coated on the ELISA plate at 1 µg/ml and also used in the western blot; also called ErbB2; Neu
Method: as §1

B1: anti-HER3 monoclonal antibody 29Z6 (antibody, mouse IgG2a, kappa, V domains shown)
VH: EVQLQESGPSLVKPSQTLSLTCYVTGDSITSGYWNWIRKFPGNKLEYMGYINYSGSTYYNPSLKSRISIIRDTSQNHYNLLLNSVTTEDTATYYCARLGTYYRYAGAMDYWGQGTSVTVSS
VL: DDVLTQTPLSLPVSLGDQASISCRSSQSLVHSNGNTYLHWYLQKPGQSPKLLIYKVSNRFSGVPDRFSGSGSGTDFTLKISRVEAEDLGVYFCSQSTHVPYTFGGGTKLEIKR
notes: also called IgG 29Z6; 29Z6 mAb
Q: Does B1 bind [1]?
A: no binding

Q: What about the koff [2] of the same binder?
A: 0.000295 s⁻¹

Q: What about the kon [2] of the same binder?
A: 188000 M⁻¹ s⁻¹

Q: What about the Kd [3] of the same binder?
A: 0.8 nM

Q: And the EC50 [4]?
A: 0.88 nM

Q: Does B1 bind [5]?
A: no binding
